From US20240247080A1, “GLP1/GIP/NPY2 RECEPTOR TRIPLE AGONISTS” (Boehringer Ingelheim International GmbH, priority 2022, published 2024)
Non-standard residues stand in square brackets, D forms with d. No end group written: not given here. Aib = CC(C)(N)C(=O)O

T1: human neuropeptide Y2 receptor (human, UniProt P49146 1-381)
T1 sequence (looked up): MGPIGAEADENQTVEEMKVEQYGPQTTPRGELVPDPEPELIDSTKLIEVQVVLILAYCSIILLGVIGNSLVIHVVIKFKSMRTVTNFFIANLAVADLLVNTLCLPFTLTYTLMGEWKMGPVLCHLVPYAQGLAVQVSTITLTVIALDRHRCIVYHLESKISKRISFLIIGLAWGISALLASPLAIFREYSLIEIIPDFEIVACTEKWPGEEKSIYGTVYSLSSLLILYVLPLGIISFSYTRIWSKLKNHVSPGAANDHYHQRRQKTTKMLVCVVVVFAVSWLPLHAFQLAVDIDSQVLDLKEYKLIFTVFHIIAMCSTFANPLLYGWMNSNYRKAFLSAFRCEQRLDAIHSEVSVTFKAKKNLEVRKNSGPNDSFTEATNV

T2: human GIP receptor (human, UniProt P48546 22-466)
T2 sequence (looked up): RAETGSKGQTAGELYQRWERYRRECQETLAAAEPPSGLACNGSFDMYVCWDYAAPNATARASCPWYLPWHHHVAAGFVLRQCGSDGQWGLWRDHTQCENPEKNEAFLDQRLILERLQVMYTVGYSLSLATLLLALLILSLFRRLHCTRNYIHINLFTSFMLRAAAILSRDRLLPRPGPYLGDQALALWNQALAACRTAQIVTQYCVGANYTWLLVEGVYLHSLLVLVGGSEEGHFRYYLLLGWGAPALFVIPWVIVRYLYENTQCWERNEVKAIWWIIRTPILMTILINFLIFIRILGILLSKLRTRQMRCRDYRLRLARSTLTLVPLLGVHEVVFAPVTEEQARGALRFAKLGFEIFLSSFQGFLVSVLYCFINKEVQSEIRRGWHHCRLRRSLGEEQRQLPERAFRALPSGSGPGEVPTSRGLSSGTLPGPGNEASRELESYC


Key:
Experiment in all cases: cell-based or functional assay
[1] = molecular target: T1, human neuropeptide Y2 receptor
human GIP receptor = molecular target: T2, human GIP receptor
human GLP-1 receptor = human GLP-1 receptor (human, UniProt P43220 24-463)

Binder	EC50 CreLuc hNPY2R 0.5% hP [1]	EC50 CreLuc hNPY2R 100% hP [1]	EC50 CreLuc hGIPR 0.5% hP (human GIP receptor)	EC50 CreLuc hGIPR 100% hP (human GIP receptor)	EC50 CreLuc hGLP1R 0.5% hP (human GLP-1 receptor)	EC50 CreLuc hGLP1R 100% hP (human GLP-1 receptor)
YXEGTFTSDYSIXLEEQAQXAFVEWLIKGGPSSGASLRHYYNWLTRQRY (Aib at 2, 13, 20; K28 side chain: C20DA-gGlu-gGlu-gGlu-gGlu-gGlu-gGlu-eLys; C-terminal NH2) [Compound 116]	13.5 nM	85.7 nM	0.43 nM	3.01 nM	0.14 nM	2.48 nM
YXEGTFTSDYSIXLEKQAQXAFVQWLIKGGPSEGASLRHYYNWLTRQRY (Aib at 2, 13, 20; NMeR at 48; K28 side chain: C20DA-gGlu-gGlu-gGlu-gGlu-gGlu-gGlu-eLys; C-terminal NH2) [Compound 125]	30.9 nM	99.3 nM	0.28 nM	1.72 nM	0.23 nM	2.85 nM
YXEGTFTSDYSIXLEKQAQXAFVEWLIKGGPSSGASIRHYYNWLTRQRY (Aib at 2, 13, 20; K28 side chain: C20DA-gGlu-gGlu-gGlu-gGlu-gGlu-gGlu-eLys; C-terminal NH2) [Compound 132]	11.3 nM	45.4 nM	0.22 nM	2.07 nM	0.14 nM	3.76 nM
YXEGTFTSDYSIXLEKQAQXAFVEWLIKGGPSEGQSIRHYYNWLTRQRY (Aib at 2, 13, 20; K28 side chain: C20DA-gGlu-gGlu-gGlu-gGlu-gGlu-gGlu-eLys; C-terminal NH2) [Compound 134]	10.1 nM	40 nM	0.09 nM	0.83 nM	0.1 nM	3.94 nM
YXEGTFTSDYSIXLEKQAQXAFVEWLIKGGPSSPASLRHYYNWLTRQRY (Aib at 2, 13, 20; K28 side chain: C20DA-gGlu-gGlu-gGlu-gGlu-gGlu-OEG-OEG; C-terminal NH2) [Compound 120]	10.7 nM	39.2 nM	0.34 nM	1.44 nM	0.11 nM	4.65 nM
YXEGTFTSDYSIXLEKQAQXAFVEWLIKGGPSEPESLRHYYNWLTRQRY (Aib at 2, 13, 20; K28 side chain: C20DA-gGlu-gGlu-gGlu-gGlu-gGlu-gGlu-eLys; C-terminal NH2) [Compound 122]	26.3 nM	78.9 nM	0.08 nM	1.53 nM	0.22 nM	4.97 nM
YXEGTFTSDYSIXLEKQAQXAFVEWLIKGGPSSGASLXHYYNWLTRQRY (Aib at 2, 13, 20, 38; K28 side chain: C20DA-gGlu-gGlu-gGlu-gGlu-gGlu-gGlu-eLys; C-terminal NH2) [Compound 129]	30.9 nM	87.6 nM	0.06 nM	0.5 nM	0.04 nM	0.85 nM
YXEGTFTSDYSIXLERQAQXAFVEWLIKGGPSSGASLRHYYNWLTRQRY (Aib at 2, 13, 20; K28 side chain: C20DA-gGlu-gGlu-gGlu-gGlu-gGlu-gGlu-eLys; C-terminal NH2) [Compound 131]	18.2 nM	71.5 nM	0.35 nM	2.94 nM	0.11 nM	2.84 nM
YXEGTFTSDYSIXLEKQAQXAFIEWLIKGGPSSGASLRHYYNWLTRQRY (Aib at 2, 13, 20; K28 side chain: C20DA-gGlu-gGlu-gGlu-Glu-gGlu-gGlu-eLys; C-terminal NH2) [Compound 130]	18 nM	54.8 nM	0.11 nM	0.98 nM	0.13 nM	1.18 nM
YXEGTFTSDYSIXLEKQAQXAFVEWLIKGGPSSGASVRHYYNWLTRQRY (Aib at 2, 13, 20; K28 side chain: C20DA-gGlu-gGlu-gGlu-gGlu-gGlu-gGlu-eLys; C-terminal NH2) [Compound 117]	6.81 nM	24.6 nM	0.14 nM	1.18 nM	0.13 nM	1.8 nM
YXEGTFTSDYSIXLESQAQXAFVEWLIKGGPSSGASLRHYYNWLTRQRY (Aib at 2, 13, 20; K28 side chain: C20DA-gGlu-gGlu-gGlu-gGlu-gGlu-gGlu-eLys; C-terminal NH2) [Compound 121]	23.8 nM	88.9 nM	0.65 nM	7.29 nM	0.18 nM	7.09 nM
YXEGTFTSDYSIXLEKQAQXAFVEWLIKGGPSSGASXRHYYNWLTRQRY (Aib at 2, 13, 20, 37; K28 side chain: C20DA-gGlu-gGlu-gGlu-gGlu-gGlu-gGlu-eLys; C-terminal NH2) [Compound 118]	6.2 nM	26.2 nM	0.06 nM	0.55 nM	0.05 nM	0.84 nM
Y[Aib]EGTFTSDYSI[Aib]LEKQAQ[Aib]AFVEWLIKGGPSSYASLRHYYNWLTRQRY-NH2 (not fully specified (residue 28)) [Compound 126]	15.1 nM	41.8 nM	0.1 nM	1.27 nM	0.18 nM	3.36 nM

Second part, the binder after the results:

EC50 CreLuc hNPY2R 0.5% hP [1]	EC50 CreLuc hNPY2R 100% hP [1]	EC50 CreLuc hGIPR 0.5% hP (human GIP receptor)	EC50 CreLuc hGIPR 100% hP (human GIP receptor)	EC50 CreLuc hGLP1R 0.5% hP (human GLP-1 receptor)	EC50 CreLuc hGLP1R 100% hP (human GLP-1 receptor)	Binder
23.1 nM	80.1 nM	0.63 nM	4.31 nM	0.26 nM	4.46 nM	YXEGTFTSDYSIXLEKQAQXAFVEWLIKGGPSSGASLRXYYNWLTRQRY (Aib at 2, 13, 20; Tle at 39; K28 side chain: C20DA-gGlu-gGlu-gGlu-gGlu-gGlu-gGlu-eLys; C-terminal NH2) [Compound 119]
8.4 nM	21.5 nM	0.11 nM	1.07 nM	0.24 nM	2.3 nM	YXEGTFTSDYSIXLEKQAQXAFVEYLIKGGPSSGASLRHYYNWLTRQRY (Aib at 2, 13, 20; K28 side chain: C20DA-gGlu-gGlu-gGlu-gGlu-gGlu-gGlu-eLys; C-terminal NH2) [Compound 135]
16.2 nM	39.9 nM	0.26 nM	0.89 nM	0.11 nM	1.95 nM	YXEGTFTSDYSIXLEQQAQXAFVEWLIKGGPSSGASLRHYYNWLTRQRY (Aib at 2, 13, 20; K28 side chain: C20DA-gGlu-gGlu-gGlu-gGlu-Glu-gGlu-eLys; C-terminal NH2) [Compound 124]
24.8 nM	51.9 nM	0.11 nM	0.9 nM	0.4 nM	3.7 nM	YXEGTFTSDYSIXLDKQAQXAFVEWLIKGGPSSGASLRHYYNWLTRQRY (Aib at 2, 13, 20; K28 side chain: C20DA-gGlu-gGlu-gGlu-gGlu-gGlu-gGlu-eLys; C-terminal NH2) [Compound 128]
6.12 nM	31.3 nM	0.42 nM	4.11 nM	0.24 nM	7.88 nM	YXEGTFTSDYSIXLEKQAQXAFVEWLIKGGQSSGASLRHYYNWLTRQRY (Aib at 2, 13, 20; K28 side chain: C20DA-gGlu-gGlu-gGlu-gGlu-gGlu-gGlu-eLys; C-terminal NH2) [Compound 123]
13.2 nM	66.3 nM	0.05 nM	0.84 nM	0.04 nM	1.6 nM	YXEGTFTSDYSIXLEKQAQXAFVEWLIKGGPSSGESLRHYYNWLTRQRY (Aib at 2, 13, 20; K28 side chain: C20DA-gGlu-gGlu-gGlu-gGlu-gGlu-gGlu-eLys; C-terminal NH2) [Compound 127]
14.1 nM	41.4 nM	0.48 nM	2.28 nM	0.16 nM	3.01 nM	YXEGTFTSDYSIXLEKQAQXAFVEWLIKGGPSSGASLRHYXNWLTRQRY (Aib at 2, 13, 20; Tle at 41; K28 side chain: C20DA-gGlu-gGlu-gGlu-gGlu-gGlu-gGlu-eLys; C-terminal NH2) [Compound 133]
